Article PMC3288073, “Aptamers as a Sensitive Tool to Detect Subtle Modifications in Therapeutic Proteins”

B1: Aptamer 30-8 (structured_DNA)
DNA: AGATGCCTGTCGAGCATGCTGTGAATAGGTAGGGTCGGATGGGCTACGGTGTAGCTAAACTGCTTTGTCGACGGG
B2: Aptamer 30-14 (structured_DNA)
DNA: AGATGCCTGTCGAGCATGCTGTTGTGGTAGGGTTAGGGATGGTAGCGGTTGTAGCTAAACTGCTTTGTCGACGG

Key:
[1] = biological target: thrombin (Recothrom), recombinant human (Homo sapiens, UniProt P00734;P00734 315-363;364-622); experiment: ELISA (apparent Kd); 1 mM Mg2+; ELISA: 25 mM Tris, 10 mM NaCl, 1 mM MgCl2, pH 7.4, RT, 1 h; aptamers heated 95 C 10 min and refolded at RT 20 min; Kd unit (nM) from Results text. BLI: Octet RE
[2] = biological target: thrombin (Thrombin JMI), bovine plasma (Bos taurus, UniProt P00735;P00735 318-366;367-625); experiment: ELISA; 1 mM Mg2+; ELISA: 25 mM Tris, 10 mM NaCl, 1 mM MgCl2, pH 7.4, RT, 1 h; aptamers heated 95 C 10 min and refolded at RT 20 min; Kd unit (nM) from Results text. BLI: Octet RE; details: protein: native; copies: 1;1

Binder	Kd [1] [nM]	binding result [2]
CAGTCCGTGGTAGGGCAGGTTGGGGTGACTTCGTGGAA (structured_DNA) [Aptamer 60-18/38]	1.48	no binding
ACCCGTGGTAGGGTAGGATGGGGTGGT (structured_DNA) [Aptamer 30-38/27]	1.28	no binding
B1	0.58	no binding
GGTTGGTGTGGTTGG (structured_DNA) [Aptamer G15D]	1.48	–
TACCGTGGTAGGGAAGGTTGGAGTGTA (structured_DNA) [Aptamer 30-16/27]	1.54	no binding
B2	2.75	no binding
